Experimental data published in article PMC6294707 (Molecular and cellular neurosciences, 2018).

Assays:
[1] = target: T1, SAP90/PSD-95 associated protein 3 (endogenous, mouse brain) (mouse (endogenous in striatum), UniProt Q6PFD5 1-977); assay: co-IP
T1 sequence (looked up): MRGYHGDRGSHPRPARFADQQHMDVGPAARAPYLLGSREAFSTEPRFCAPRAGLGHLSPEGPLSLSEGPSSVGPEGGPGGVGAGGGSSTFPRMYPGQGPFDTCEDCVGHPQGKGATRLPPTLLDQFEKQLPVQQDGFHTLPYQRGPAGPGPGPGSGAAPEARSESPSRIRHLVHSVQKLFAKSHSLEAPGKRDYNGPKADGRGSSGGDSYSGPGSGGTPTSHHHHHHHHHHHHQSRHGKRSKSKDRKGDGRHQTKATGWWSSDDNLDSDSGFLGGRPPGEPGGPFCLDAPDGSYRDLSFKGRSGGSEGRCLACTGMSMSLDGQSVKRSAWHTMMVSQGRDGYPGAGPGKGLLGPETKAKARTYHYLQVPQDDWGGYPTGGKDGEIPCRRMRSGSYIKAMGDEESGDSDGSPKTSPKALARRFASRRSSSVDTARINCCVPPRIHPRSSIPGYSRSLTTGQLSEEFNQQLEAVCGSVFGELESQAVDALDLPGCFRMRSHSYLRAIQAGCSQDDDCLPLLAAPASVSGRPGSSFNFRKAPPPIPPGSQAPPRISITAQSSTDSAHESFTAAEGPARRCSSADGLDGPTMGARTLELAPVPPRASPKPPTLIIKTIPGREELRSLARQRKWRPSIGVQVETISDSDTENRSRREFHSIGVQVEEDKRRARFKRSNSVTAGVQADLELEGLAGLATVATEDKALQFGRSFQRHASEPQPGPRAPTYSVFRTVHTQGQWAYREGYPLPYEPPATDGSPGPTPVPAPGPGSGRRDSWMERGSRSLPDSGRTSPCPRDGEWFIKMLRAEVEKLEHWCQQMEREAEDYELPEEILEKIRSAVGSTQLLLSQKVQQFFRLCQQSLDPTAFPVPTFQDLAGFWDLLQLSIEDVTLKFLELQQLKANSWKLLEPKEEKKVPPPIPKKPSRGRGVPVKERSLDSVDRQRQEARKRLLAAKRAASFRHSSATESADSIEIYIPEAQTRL

[2] = target: HA-tagged spinophilin (human, full-length) (human, UniProt Q96SB3 1-817); assay: co-IP
Sequence of HA-tagged spinophilin (human, full-length) (Q96SB3 whole entry): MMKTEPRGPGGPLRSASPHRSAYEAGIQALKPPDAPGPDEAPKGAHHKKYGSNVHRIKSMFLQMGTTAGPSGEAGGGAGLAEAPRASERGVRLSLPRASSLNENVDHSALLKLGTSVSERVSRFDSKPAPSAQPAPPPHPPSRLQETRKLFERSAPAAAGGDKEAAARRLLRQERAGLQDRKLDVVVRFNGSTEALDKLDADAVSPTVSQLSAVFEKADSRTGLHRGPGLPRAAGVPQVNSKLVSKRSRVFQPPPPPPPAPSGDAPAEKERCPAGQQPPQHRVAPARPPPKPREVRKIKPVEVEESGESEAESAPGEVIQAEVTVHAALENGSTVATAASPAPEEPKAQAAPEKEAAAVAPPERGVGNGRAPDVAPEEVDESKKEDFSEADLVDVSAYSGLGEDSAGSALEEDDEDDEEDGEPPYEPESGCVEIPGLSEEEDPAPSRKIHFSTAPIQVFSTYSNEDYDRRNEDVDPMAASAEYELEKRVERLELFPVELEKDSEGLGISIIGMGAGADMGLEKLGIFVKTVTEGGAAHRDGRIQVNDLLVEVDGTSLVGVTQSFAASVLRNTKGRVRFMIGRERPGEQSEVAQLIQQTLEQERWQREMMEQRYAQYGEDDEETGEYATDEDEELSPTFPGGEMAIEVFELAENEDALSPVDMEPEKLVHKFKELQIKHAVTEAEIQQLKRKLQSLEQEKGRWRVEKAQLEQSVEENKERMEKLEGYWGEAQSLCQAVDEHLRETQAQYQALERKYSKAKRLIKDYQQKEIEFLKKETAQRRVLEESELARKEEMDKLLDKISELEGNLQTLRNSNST

| Binder | fold greater association, WT over SAPAP3 KO [1] | fold change of association, PKCbeta overexpressed and activated over control [2] | fold change of association, mGluR5 overexpressed over control [2] |
| --- | --- | --- | --- |
| spinophilin (endogenous, mouse brain) (natural protein) not shown | ~3 fold |  |  |
| V5-tagged SAPAP3 (rat) (natural protein, UniProt P97838 1-977, looked up) MRGYHGDRGSHPRPARFADQQHMDVGPAARAPYLLGSREAFSTEPRFCAPRAGLGHLSPEGPLSLSEGPSSVGPEGGPGGVGAGGSSSTFPRMYPGQGPFDTCEDCVGHPQGKGATRLLPTFLDQFEKQLPVQQDGFHTLPYQRGPAGPGPGPGSGAAPEARSESPSRIRHLVHSVQKLFAKSHSLEAPGKRDYNGPKAEGRSSSGGDSYSGPGSGGPPTSHHHHHHHHHHHHQSRHGKRSKSKDRKGDGRHQTKATGWWSSDDNLDSDSGFLGGRPPGEPGGPFCLDAPDGSYRDLSFKGRSGGSEGRCLACTGMSMSLDGQSVKRSAWHTMMVSQGRDGYPGAGPGKGLLGPETKAKARTYHYLQVPQDDWGGYPTGGKDGEIPCRRMRSGSYIKAMGDEESGDSDGSPKTSPKALARRFASRRSSSVDTARINCCVPPRIHPRSSIPGYSRSLTTGQLSEEFNQQLEAVCGSVFGELESQAVDALDLPGCFRMRSHSYLRAIQAGCSQDDDCLPLLAAPASVSGRPGSSFNFRKAPPPIPPGSQAPPRISITAQSSTDSAHESFTAAEGPARRCSSADGLDGPTMGARTLELAPVPPRASPKPPTLIIKTIPGREELRSLARQRKWRPSIGVQVETISDSDTENRSRREFHSIGVQVEEDKRRARFKRSNSVTAGVQADLELEGLAGLATVATEDKALQFGRPFQRQASEPQPGPRAPTYSVFRTVHTQGQWAYREGYPLPYEPPATDGSPGPPPVPAPGPGSGRRDSWMERGSRSLPDSGRTSPCPRDGEWFIKMLRAEVEKLEHWCQQMEREAEDYELPEEILEKIRSAVGSTQLLLSQKVQQFFRLCQQSLDPTAFPVPTFQDLAGFWDLLQLSIEDVTLKFLELQQLKANSWKLLEPKEEKKVPPPIPKKPSRGRGVPVKERSLDSVDRQRQEARKRLLAAKRAASFRHSSATESADSIEIYIPEAQTRL |  | ~3.3 fold | ~12 fold |
